Target: MERS-CoV S-protein (on 293FT effector cells) (MERS-CoV, UniProt K9N5Q8)
Assay: cell-based or functional assay

SLTQINTTLLDLTYEMLSLQQVVKALNESYIDLKEL [Peptide 1 (WT)]
EC50 (µM), cell-cell fusion assay: 1.05 µM

Reference: patent US20210332086A1 (published 2021)
